# B1: ZNF263 (parent)
# chain: CSECGESFSRSSRLMSHQRTHTG
# Variants of: B1
# Test: protein stability index of a GFP-peptide fusion (GPS, HEK-293T) (PSI 1-6); higher = more stable
# Details: c terminus: native
# 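Note: lentivirally expressed fusions sorted by FACS into six bins by GFP to DsRed ratio, PSI derived from sequencing read proportions per bin multiplied by bin number.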
row,Variant,protein stability index
1,CSECGESFSRSSRLMNHQRTHTG [S16N],2.14
2,CSECGESFSRSSRLMHHQRTHTG [S16H],2.64
3,CSECGESFSRSSRLMCHQRTHTG [S16C],3.1
4,CSECGESFSRSSRLMEHQRTHTG [S16E],4.89
5,CSECGESFSRSSRLMMHQRTHTG [S16M],4.14
6,CSECGESFSRSSRLMAHQRTHTG [S16A],3.8
7,CSECGESFSRSSRLMFHQRTHTG [S16F],2.28
8,CSECGESFSRSSRLMTHQRTHTG [S16T],3.34
9,CSECGESFSRSSRLMVHQRTHTG [S16V],3.49
10,CSECGESFSRSSRLMIHQRTHTG [S16I],2.88
11,CSECGESFSRSSRLMYHQRTHTG [S16Y],1.93
12,CSECGESFSRSSRLMRHQRTHTG [S16R],3.69
13,CSECGESFSRSSRLMLHQRTHTG [S16L],3.83
14,CSECGESFSRSSRLMWHQRTHTG [S16W],1.83
15,CSECGESFSRSSRLMDHQRTHTG [S16D],4.8
16,CSECGESFSRSSRLMSFQRTHTG [H17F],2.73
17,CSECGESFSRSSRLMSIQRTHTG [H17I],3.2
18,CSECGESFSRSSRLMSEQRTHTG [H17E],2.38
19,CSECGESFSRSSRLMSCQRTHTG [H17C],2.42
20,CSECGESFSRSSRLMSLQRTHTG [H17L],1.38
21,CSECGESFSRSSRLMSAQRTHTG [H17A],1.44
22,CSECGESFSRSSRLMSDQRTHTG [H17D],2.52
23,CSECGESFSRSSRLMSKQRTHTG [H17K],2.76
24,CSECGESFSRSLRLMSHQRTHTG [S12L],2.01
25,CSECGESFSRSKRLMSHQRTHTG [S12K],1.99

row,Variant,protein stability index
1,CSECGESFSRSMRLMSHQRTHTG [S12M],2.58
2,CSECGESFSRSRRLMSHQRTHTG [S12R],2.23
3,CSECGESFSRSIRLMSHQRTHTG [S12I],2.4
4,CSECGESFSRSNRLMSHQRTHTG [S12N],2.52
5,CSECGESFSRSQRLMSHQRTHTG [S12Q],2.38
6,CSECGESFSRSCRLMSHQRTHTG [S12C],3.76
7,CSECGESFSRSARLMSHQRTHTG [S12A],2.13
8,CSECGESFSRSWRLMSHQRTHTG [S12W],2.13
9,CSECGESFSRSHRLMSHQRTHTG [S12H],2.66
10,CSECGESFSRSGRLMSHQRTHTG [S12G],1.91
11,CSECGESFSRSPRLMSHQRTHTG [S12P],2.06
12,CSECGESFSRSVRLMSHQRTHTG [S12V],1.86
13,CSECGESFSRSFRLMSHQRTHTG [S12F],1.86
14,CSECGESFSRSDRLMSHQRTHTG [S12D],4.42
15,CSECGESFSRSYRLMSHQRTHTG [S12Y],2.65
16,CSECGESFSRSTRLMSHQRTHTG [S12T],1.72
17,CSECGESFSRSSRLNSHQRTHTG [M15N],2.22
18,CSECGESFSRSSRLSSHQRTHTG [M15S],2.19
19,CSECGESFSRSSRLVSHQRTHTG [M15V],2.54
20,CSECGESFSRSSRLISHQRTHTG [M15I],3.54
21,CSECGESFSRSSRLQSHQRTHTG [M15Q],3.51
22,CSECGESFSRSSRLLSHQRTHTG [M15L],3.13
23,CSECGESFSRSSRLPSHQRTHTG [M15P],1.72
24,CSECGESFSRSSRLCSHQRTHTG [M15C],2.75
25,CSECGESFSRSSRLDSHQRTHTG [M15D],3.48

row,Variant,protein stability index
1,CSECGESFSRSSRLTSHQRTHTG [M15T],2.54
2,CSECGESFSRSSRLGSHQRTHTG [M15G],1.98
3,CSECGESFSRSSRLHSHQRTHTG [M15H],3.24
4,CSECGESFSRSSRLESHQRTHTG [M15E],3.72
5,CSECGESFSRSSRLASHQRTHTG [M15A],3.54
6,CSECGESFSRSSRLYSHQRTHTG [M15Y],2.83
7,CSECGESFSRSSRLWSHQRTHTG [M15W],1.85
8,CSECGESFSRSSRLKSHQRTHTG [M15K],3.97
9,CSECGESFSRSSRLFSHQRTHTG [M15F],3.2
10,CSECGESFSRSSRLRSHQRTHTG [M15R],3.03
11,CSECGESFSRSSRVMSHQRTHTG [L14V],1.45
12,CSECGESFSRSSRDMSHQRTHTG [L14D],2.74
13,CSECGESFSRSSREMSHQRTHTG [L14E],2.35
14,CSECGESFSRSSRAMSHQRTHTG [L14A],2.39
15,CSECGESFSRSSRQMSHQRTHTG [L14Q],1.32
16,CSECGESFSRSSRFMSHQRTHTG [L14F],2.43
17,CSECGESFSRSSRHMSHQRTHTG [L14H],1.55
18,CSECGESFSRSSRTMSHQRTHTG [L14T],2.05
19,CSECGESFSRSSRYMSHQRTHTG [L14Y],2.98
20,CSECGESFSRSSRPMSHQRTHTG [L14P],1.67
21,CSECGESFSRSSRWMSHQRTHTG [L14W],1.96
22,CSECGESFSRSSRGMSHQRTHTG [L14G],1.62
23,CSECGESFSRSSRNMSHQRTHTG [L14N],2.12
24,CSECGESFSRSSRMMSHQRTHTG [L14M],1.87
25,CSECGESFSRRSRLMSHQRTHTG [S11R],2.31

row,Variant,protein stability index
1,CSECGESFSRVSRLMSHQRTHTG [S11V],4.71
2,CSECGESFSRYSRLMSHQRTHTG [S11Y],3.67
3,CSECGESFSRTSRLMSHQRTHTG [S11T],2.54
4,CSECGESFSRSSLLMSHQRTHTG [R13L],4.84
5,CSECGESFSRSSSLMSHQRTHTG [R13S],4.84
6,CSECGESFSRSSKLMSHQRTHTG [R13K],4.19
7,CSECGESFSRSSYLMSHQRTHTG [R13Y],3.6
8,CSECGESFSRSSELMSHQRTHTG [R13E],5.6
9,CSECGESFSRSSALMSHQRTHTG [R13A],4.91
10,CSECGESFSRSSDLMSHQRTHTG [R13D],5.63
11,CSECGESFSRSSVLMSHQRTHTG [R13V],4.14
12,CSECGESFSRSSGLMSHQRTHTG [R13G],3.3
13,CSECGESFSRSSNLMSHQRTHTG [R13N],4.26
14,CSECGESFSRSSQLMSHQRTHTG [R13Q],4.66
15,CSECGESFSRSSCLMSHQRTHTG [R13C],4.52
16,CSECGESFSRSSPLMSHQRTHTG [R13P],2.43
17,CSECGESFSRSSTLMSHQRTHTG [R13T],4.34
18,CSECGESFSRSSFLMSHQRTHTG [R13F],3.48
19,CSECGESFSRSSHLMSHQRTHTG [R13H],4.79
20,CSECGESFSRSSWLMSHQRTHTG [R13W],2.56
21,CSECGESFSRSSMLMSHQRTHTG [R13M],4.03
22,CSECGESFSRSSILMSHQRTHTG [R13I],3.96

# Source: the supplement of paper PMC10567573
